# Reference: patent US20050158362A1, “Polymeric, fiber matrix delivery systems for bioactive compounds” (priority 2000, published 2005)
# Experiment: In vitro release of FITC-BSA from the fiber matrix into an infinite sink of 37° C. phosphate buffered saline
# Type: physicochemical
# Conditions: polylactic glycolic acid fiber matrix
# From the text: To construct the bioactive compound-loaded matrices, various concentrations of finely ground FITC-BSA were suspended in biodegradable polymer polylactic glycolic acid in 50:50 dimethyl formamide:tetrahydrofuran. Suspensions contained in a glass syringe with a capillary tip were electrospun into approximately 500 nm diameter fibers via an electrostatic based self-assembly process in which a high voltage electric field was generated between the oppositely charged polymer and a metallic collection screen. At a critical voltage the charge overcomes the surface tension of the deformed polymer drop at the needle tip, producing an ultrafine jet. The similarly charged fibers are splayed and during their passage to the screen, the solvent quickly evaporates so that dry fibers accumulate randomly on the screen forming a mesh matrix.
# In vitro release of the FITC-BSA into an infinite sink of 37° C. phosphate buffered saline was also measured. This sink mimics in vivo conditions.
# A 25% (w/v) solution of polylactic glycolic acid was prepared in a 50:50 mixture of dimethylformamide and tetrahydrofuran. […]
# In vitro release of the FITC-BSA into an infinite sink of 37° C. phosphate buffered saline was measured. […] The amount of protein released was measured in the form of fluorescence of the FITC-BSA on a spectrophotofluorometer at an excitation wavelength of 495 nm and an emission wavelength of 513 nm.
substance,measurement,setting,value
FITC-BSA: fluorescently labeled bovine serum albumin dispersed between electrospun polylactic glycolic acid fibers of the matrix,in vitro release profile of FITC-BSA,,release in the first 24 hours after initiation was dominant
same,duration of observed in vitro release of FITC-BSA,fluorescence readout,over 120 hours
